The subject of one data set is NCI-H82 tumors. Put plainly: Efficacy (tumor growth) in NCI-H82 tumor model. The data set is classed as in vivo, mouse. The following applies: for Mean Diff.: Dunnett's multiple comparisons test, tumor volume in mm^3, NCI-H82, R2G2 mice. The procedure:
To determine the efficacy of radio-labelled (Pb-212) DARPin (MAM279) conjugate in inhibiting the growth of tumors that express DLL3, different dose regimens (single or repeated dose) of the conjugate were tested in a relevant mouse tumor model (NCI-H82).
Animals were under observation daily and 3× per week tumors were measured by caliper. Animals were sacrificed when tumors reached 1500 to 2000 mm^3 or if termination criteria were met. The data were expressed as average+/−SEM of tumor volume in mm^3.
To determine the efficacy of more frequent repeat-dosing of radio-labelled (Pb-212) DARPin (MAM279) conjugate in inhibiting the growth of tumors that express DLL3, a weekly repeat-dosing regimen of the conjugate was tested in a relevant mouse tumor model (NCI-H82).
Corresponding injections of buffer only were done as control. The first weekly injection of radio-labeled molecules was done 14 days after xenografting the NCI-H82 cells. Animals were under observation daily and 3× per week tumors were measured by caliper. Animals were sacrificed when tumors reached 1500 to 2000 mm^3 or if termination criteria were met. The data were expressed as average+/−SEM of tumor volume in mm^3. Results are shown in FIGS. 20A to 20D and Table 23.

Data set [1] deals with T1, human DLL3 and human serum albumin (Homo sapiens, UniProt P02768+Q9NYJ7).
T1 construct: Biotinylated recombinant human DLL3-ECD was immobilized
Briefly: SPR simultaneous binding to DLL3 and serum albumin. The following applies: immobilized hDLL3-ECD, 150 nM conjugate then 1000 nM HSA. The procedure: Studies were performed to determine whether a two domain (2D) ankyrin repeat protein conjugate, as described herein, can bind simultaneously to DLL3 and serum albumin. The specific conjugate tested was MAM279 (SEQ ID NO: 11), with a Glycine-Serine (GS) at its N-terminal end and a tag (SEQ ID NO: 10) at its C-terminal end (resulting in GS-MAM279-tag (SEQ ID NO: 15)), conjugated to the chelator DOTAM as described in Example 3.
An SPR assay was used to assess the concurrent binding of DARPin (MAM279) conjugate to both human DLL3 and human serum albumin (HSA). […] A streptavidin SAHC200M (Xantec) sensor chip was conditioned according to the manufacturer's protocol. Biotinylated recombinant human DLL3-ECD was immobilized to a coating density of 1350-1470 RU. A single injection of 150 nM DARPin conjugate was performed, with an association time of 240 s using a constant flow of 100 μl/min. After a lag time of ˜300 seconds, HSA was injected at 1000 nM with an association time of 240 seconds and a dissociation time of 900 seconds using a constant flow of 100 μl/min. Control lanes were used where only one of the analytes or only PBST was injected. The signal was double referenced (interspot and buffer injection). The figure (FIG. 17) was prepared with GraphPad Prism 10.2.3.

Another data set relates to hDLL3-MC38 tumors. Put plainly: Efficacy (tumor growth) in hDLL3-MC38 tumor model. The following applies: tumor volume in mm^3, hDLL3-MC38. The data set is classed as in vivo, mouse. The protocol:
To determine the efficacy of radio-labelled (Pb-212) DARPin (MAM160) conjugate in inhibiting the growth of tumors that express DLL3, different dose regimens (single or repeated dose) of the conjugate were tested in a mouse tumor model (hDLL3-MC38).
The first injections were done 7 days after the xenografts. Animals were under observation daily and 3× per week tumors were measured by caliper. Animals were sacrificed when tumors reached 1000 mm^3 or if termination criteria were met. The data were expressed as average+/−SEM of tumor volume in mm^3.

Data set [2] deals with T2, human serum albumin (Homo sapiens, UniProt P02768). Conditions: class in words (Low, Mid, High); Table 5.
Procedure: For SPR analysis, the free Cysteine of the 2D DARPins was capped with Iodoacetamide (IAM). A surface plasmon resonance (SPR) assay was then used to determine the binding kinetics of the three 2D DARPins to human or mouse serum albumin. Various concentrations of 2D DARPins starting from 2000 nM were applied to immobilized human serum albumin (HSA) or mouse serum albumin (MSA) for on-rate and off-rate measurements.
The data were generated using a BioRad ProteOn instrument with SPR running buffer (PBS, pH 7.4 containing 0.05% Tween 20®). A HC200M chip (Xantec) was conditioned according to the manufacturer's protocol. The chip was coated with purified human serum albumin (HSA, CSL) or mouse serum albumin (MSA, Sigma-Aldrich) in NaOAc pH5.0 to reach a signal intensity of ˜380 (HSA) or ˜630 (MSA) RU for the analysis of Intermediate HSA affinity 2D DARPin and High HSA affinity 2D DARPin; ˜1125 (HSA) or ˜1965 (MSA) for the analysis of Low HSA affinity 2D DARPin. All analytes (3-fold dilution ranging from 2000-24.69 nM) were injected in succession for 240 s (50 μl/min) and dissociation was recorded for 600 s (50 μl/min). The data was double referenced (control spot and buffer injection) and fitted to a 1:1 Langmuir model. The obtained SPR traces were used to determine binding parameters.
In data set [3] the target is T2, human serum albumin. Put plainly: SPR binding to human serum albumin (Example 18). Set-up: purchased CSL. The following applies: immobilized HSA, 1:1 Langmuir, Table 21. The protocol:
SPR multi-trace analyses were performed similarly as described in previous Examples. The following ankyrin repeat proteins analyzed: (i) MAM279 (SEQ ID NO: 11) (with a Glycine-Serine (GS) at its N-terminal end); and (ii) MAM279 (SEQ ID NO: 11), with a Glycine-Serine (GS) at its N-terminal end and a tag (SEQ ID NO: 10) at its C-terminal end (resulting in GS-MAM279-tag (SEQ ID NO: 15)), conjugated to the chelator DOTAM as described in Example 3.
All analytes (3-fold dilution ranging from 600-7.41 nM) were injected in succession for 240 s and dissociation was recorded for 600 s using a constant flow of 25 μl/min (HSA) or 100 μl/min (MSA) (25 μl/min). […] The obtained SPR traces were used to determine the DARPin-serum albumin interaction parameters, and results are summarized in Table 21.
A general note: In SPR one partner is held on a chip, and binding of the other changes the refractive index at the surface.

The target of a further data set is pig DLL3-ECD. Briefly: SPR, immobilized DARPin, binding of pig DLL3-ECD (Example 17). Conditions: immobilized biotinylated DARPin, DLL3-ECD as analyte, 1:1 Langmuir, Table 20. The procedure: Kinetic binding parameters and binding affinities of two domain (2D) ankyrin repeat protein MAM279 and single domain (1 D) ankyrin repeat protein MAM093 to DLL3 from different species were determined. The DLL3-specific ankyrin repeat domain of MAM093 is identical to the DLL3-specific ankyrin repeat domain comprised in MAM279.
SPR multi-trace analyses were performed similarly as described in Examples 1 and 11. Here, the binding kinetics of immobilized DARPin proteins to the extracellular domain of DLL3 (DLL3-ECD) from human, cynomolgus monkey, mouse and pig were determined. Various concentrations of recombinant DLL3-ECD starting from 500 nM were applied to immobilized biotinylated 2D DARPin (MAM279; SEQ ID NO: 11) or 1 D DARPin (MAM093; SEQ ID NO: 1) (both with a Glycine-Serine (GS) at the N-terminal end) for on-rate and off-rate measurements.
Streptavidin SAHC200M (Xantec) SPR chip was conditioned according to the manufacturer's protocol. Biotinylated DARPins were immobilized to a coating density of 27 resonance units (RU) for 1D DARPin and 25 RU for 2D DARPin. All analytes (3-fold dilution ranging from 500-6.17 nM) were injected in succession for 240 s and dissociation was recorded for 10800 s using a constant flow of 100 μl/min.

The Kd is the free concentration of one partner at which half of the binding sites on the other are occupied at equilibrium, for simple one-to-one binding.

B1: MAM279 conjugate: SEQ ID NO: 15 conjugated to DOTAM-maleimide, labelled with Pb-212 (natural lead in PK studies) (conjugate)
chain: GSDLGKKLLEAARAGQDDEVRELLKAGADVNAKDYFSHTPLHLAARNGHLKIVEVLLKAGADVNAKDFAGKTPLHLAADAGHLEIVEVLLKAGADVNAQDIFGKTPADIAADAGHEDIAEVLQKAAGSPTPTPTTPTPTPTTPTPTPTGSDLGKKLLAAAAQGQDDEVRELLKAGANVNAKDLFGYTPLHLAAWRGHLEIVEVLLKAGADVNAKDAAGETPLHLAAWFGHLEIVEVLLKAGADVNAQDLQGKTPADLAAKEGHEDIAEVLQKAAGSGSC
modifications: DOTAM-maleimide, Pb-212 label; Ankyrin repeat protein with tag (GS-MAM279-tag)
In the case of B1, the “Mean Diff.” value in the data set with NCI-H82 tumors (Buffer only vs. (4 × 10μCi, 1 wk)) is given as 731.9; in the data set with NCI-H82 tumors (Buffer vs. conjugate (1 × 10μCi)), 140.6; in the data set on NCI-H82 tumors (Buffer vs. conjugate (4 × 10μCi, injections 2 weeks apart)) it was 429.7. Besides, the “efficacy in inhibiting the growth of NCI-H82 tumors” value with NCI-H82 tumors (Pb-212 labelled conjugate, 1×10 μCi or 4×10 μCi (2 weeks apart), in words) was “good efficacy”; with NCI-H82 tumors (injected four times weekly at 10 μCi, in words) it was “strong and statistically significant efficacy”. The “potency versus benchmark antibody (Rova) conjugate” value with NCI-H82 tumors (both at 4×10 μCi, NCI-H82 tumors, in words) is reported as “more potent than the benchmark antibody (Rova) conjugate”. The complete tumor regression result with NCI-H82 tumors (four times weekly at 10 μCi, NCI-H82, day 63 post-tumor cell xenograft) was “about 70 % of mice”.

B2: MAM279-DOTAM: GS-MAM279-tag (SEQ ID NO: 15) conjugated to the chelator DOTAM via C-terminal tag and maleimide connector, no radionuclide (conjugate)
chain: GSDLGKKLLEAARAGQDDEVRELLKAGADVNAKDYFSHTPLHLAARNGHLKIVEVLLKAGADVNAKDFAGKTPLHLAADAGHLEIVEVLLKAGADVNAQDIFGKTPADIAADAGHEDIAEVLQKAAGSPTPTPTTPTPTPTTPTPTPTGSDLGKKLLAAAAQGQDDEVRELLKAGANVNAKDLFGYTPLHLAAWRGHLEIVEVLLKAGADVNAKDAAGETPLHLAAWFGHLEIVEVLLKAGADVNAQDLQGKTPADLAAKEGHEDIAEVLQKAAGSGSC
modifications: DOTAM chelator via maleimide on C-terminal tag; Ankyrin repeat protein with tag (GS-MAM279-tag)
For the molecule B2, the “simultaneous binding to DLL3 and serum albumin” value in data set [1] was “can bind simultaneously to human DLL3 and human serum albumin”.

B3: Rova: Rova antibody, DLL3-binding benchmark antibody used as positive control and comparison (antibody, chains of the INN, looked up, V domains shown)
VH: QVQLVQSGAEVKKPGASVKVSCKASGYTFTNYGMNWVRQAPGQGLEWMGWINTYTGEPTYADDFKGRVTMTTDTSTSTAYMELRSLRSDDTAVYYCARIGDSSPSDYWGQGTLVTVSS
VL: EIVMTQSPATLSVSPGERATLSCKASQSVSNDVVWYQQKPGQAPRLLIYYASNRYTGIPARFSGSGSGTEFTLTISSLQSEDFAVYYCQQDYTSPWTFGQGTKLEIK
Regarding B3, the “Mean Diff.” value was determined as 251.6 in the data set on hDLL3-MC38 tumors (Dunnett's multiple comparisons test, Buffer vs. 3 × 10μCi (1 week apart)) and 251.6 in the data set on hDLL3-MC38 tumors (Tukey's multiple comparisons test, Buffer vs. 3 × 10μCi).

B4: MAM160: Two domain (2D) ankyrin repeat protein: serum albumin-specific domain (SEQ ID NO: 7), PT linker, DLL3-specific domain MAM120 (protein)
chain: DLGKKLLEAARAGQDDEVRELLKAGADVNAKDYFSHTPLHLAARNGHLKIVEVLLKAGADVNAKDFAGKTPLHLAADAGHLEIVEVLLKAGADVNAQDIFGKTPADIAADAGHEDIAEVLQKAAGSPTPTPTTPTPTPTTPTPTPTGSDLGTKLLSAAADGQDDEVRELLQAGADVNAKDLFGYTPLHLAAWRGHLEIVEVLLEAGADVNAKDAAGLTPLHLAAWFGHLEIVEVLLEAGADVNAQDVQGVTPADLAAKEGHEDIAEVLQQAA
modifications: Ankyrin repeat protein (MAM160)
Consider B4, for which, in the data set with human serum albumin [2], the HSA affinity entry is “High”.

B5: MAM279: Two domain (2D) ankyrin repeat protein: serum albumin-specific domain (SEQ ID NO: 7), PT linker, DLL3-specific domain of MAM093 (protein)
chain: DLGKKLLEAARAGQDDEVRELLKAGADVNAKDYFSHTPLHLAARNGHLKIVEVLLKAGADVNAKDFAGKTPLHLAADAGHLEIVEVLLKAGADVNAQDIFGKTPADIAADAGHEDIAEVLQKAAGSPTPTPTTPTPTPTTPTPTPTGSDLGKKLLAAAAQGQDDEVRELLKAGANVNAKDLFGYTPLHLAAWRGHLEIVEVLLKAGADVNAKDAAGETPLHLAAWFGHLEIVEVLLKAGADVNAQDLQGKTPADLAAKEGHEDIAEVLQKAA
modifications: Ankyrin repeat protein (MAM279)
As to B5, in the data set with human serum albumin [3], binding was characterised by a dissociation constant (Kd) of 0.0755 µM, the “Koff HSA” value is 0.0216 s⁻¹ and the “Kon HSA” value was found to be 286000 M⁻¹ s⁻¹. Also, on pig DLL3-ECD, binding was characterised by a dissociation constant (Kd) of 0.0173 µM, the “Koff pig DLL3-ECD” value worked out at 0.000319 s⁻¹ and the “Kon pig DLL3-ECD” value was found to be 18400 M⁻¹ s⁻¹.

Values taken from patent US20250332297A1, “DLL3-SPECIFIC BINDING CONSTRUCTS AND THEIR USE IN RADIOTHERAPY” (MOLECULAR PARTNERS AG, priority 2024, published 2025).
